Experimental data reported in paper PMC9482650, “Quantitative fragmentomics allow affinity mapping of interactomes” (Nature Communications, 2022).

T1: LIN7B, Q9HAP6
T1 sequence (Q9HAP6 88-185, limits assumed, looked up): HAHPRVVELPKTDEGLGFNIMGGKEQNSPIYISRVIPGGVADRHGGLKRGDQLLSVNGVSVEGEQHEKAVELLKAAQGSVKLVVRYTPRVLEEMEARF

T2: MPDZ_10, O75970
T2 sequence (O75970 1624-1722, limits assumed, looked up): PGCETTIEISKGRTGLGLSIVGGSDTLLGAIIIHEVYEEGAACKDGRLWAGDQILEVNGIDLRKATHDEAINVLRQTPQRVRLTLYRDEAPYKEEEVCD

T3: DLG3_3, Q92796
T3 sequence (Q92796 374-475, limits assumed, looked up): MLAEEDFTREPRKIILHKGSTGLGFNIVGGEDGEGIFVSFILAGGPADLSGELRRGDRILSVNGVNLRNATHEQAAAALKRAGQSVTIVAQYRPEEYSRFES

T4: SNTA1, Q13424
T4 sequence (Q13424 82-180, limits assumed, looked up): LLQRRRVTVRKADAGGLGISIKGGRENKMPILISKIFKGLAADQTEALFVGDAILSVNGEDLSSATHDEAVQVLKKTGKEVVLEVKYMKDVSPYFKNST

T5: DFNB31_2, Q9P202
T5 sequence (Q9P202 274-371, limits assumed, looked up): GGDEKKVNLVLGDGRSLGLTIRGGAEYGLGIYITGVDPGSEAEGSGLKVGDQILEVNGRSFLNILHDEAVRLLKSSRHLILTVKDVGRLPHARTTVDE

T6: TIAM2, Q8IVF5
T6 sequence (Q8IVF5 885-986, limits assumed, looked up): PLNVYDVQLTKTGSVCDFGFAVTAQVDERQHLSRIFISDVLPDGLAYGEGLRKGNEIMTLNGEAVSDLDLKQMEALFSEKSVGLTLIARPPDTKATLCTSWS

T7: RAPGEF6, Q8TEU7
T7 sequence (Q8TEU7 525-625, limits assumed, looked up): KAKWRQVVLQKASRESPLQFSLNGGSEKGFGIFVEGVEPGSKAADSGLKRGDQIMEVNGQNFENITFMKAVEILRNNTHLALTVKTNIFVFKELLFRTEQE

T8: DFNB31_1, Q9P202
T8 sequence (Q9P202 135-233, limits assumed, looked up): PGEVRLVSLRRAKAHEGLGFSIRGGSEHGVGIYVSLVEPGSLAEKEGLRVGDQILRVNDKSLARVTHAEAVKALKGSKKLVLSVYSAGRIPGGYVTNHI

T9: NHERF3_1, Q5T2W1
T9 sequence (Q5T2W1 4-100, limits assumed, looked up): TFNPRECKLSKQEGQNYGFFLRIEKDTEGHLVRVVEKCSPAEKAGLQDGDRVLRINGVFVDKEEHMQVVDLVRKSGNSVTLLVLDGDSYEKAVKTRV

T10: HTRA4, P83105
T10 sequence (P83105 378-476, limits assumed, looked up): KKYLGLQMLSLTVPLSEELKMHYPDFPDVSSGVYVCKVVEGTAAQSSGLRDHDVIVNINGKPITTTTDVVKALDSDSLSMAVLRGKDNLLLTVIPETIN

T11: DVL3, Q92997
T11 sequence (Q92997 244-331, limits assumed, looked up): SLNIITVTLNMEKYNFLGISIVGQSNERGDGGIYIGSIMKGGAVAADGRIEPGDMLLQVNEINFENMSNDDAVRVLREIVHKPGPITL

T12: SNTG1, Q9NSN8
T12 sequence (Q9NSN8 52-150, limits assumed, looked up): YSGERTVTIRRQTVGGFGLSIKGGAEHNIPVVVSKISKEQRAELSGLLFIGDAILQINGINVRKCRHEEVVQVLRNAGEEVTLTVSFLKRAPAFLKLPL

T13: SNTG2, Q9NY99
T13 sequence (Q9NY99 68-166, limits assumed, looked up): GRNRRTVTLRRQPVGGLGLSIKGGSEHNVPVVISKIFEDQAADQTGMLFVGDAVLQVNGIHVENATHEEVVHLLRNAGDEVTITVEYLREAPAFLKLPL


biological target: T1, LIN7B, Q9HAP6; test: holdup assay; set-up: key: below the threshold = too weak to quantify, mostly under pKd 3.1 to 4; details: plain residues with an end cap or a label only (N-terminal biotin on a linker: ado-ado)

pKd	Binder
3.65	YAEKRMLTEV [KCNA6, P17658]
below the threshold	FLVTEFNVML [DFNB31, Q9P202]

biological target: LIMK2, P53671; test: holdup assay; set-up: key: below the threshold = too weak to quantify, mostly under pKd 3.1 to 4; details: plain residues with an end cap or a label only (N-terminal biotin on a linker: ado-ado)
Sequence (P53671 143-248): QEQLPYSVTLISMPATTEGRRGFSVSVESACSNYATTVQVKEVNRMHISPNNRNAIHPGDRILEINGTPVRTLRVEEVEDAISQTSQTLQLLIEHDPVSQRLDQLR

pKd	Binder
below the threshold	YAEKRMLTEV [KCNA6, P17658]
below the threshold	FLVTEFNVML [DFNB31, Q9P202]

biological target: GORASP2, Q9H8Y8; test: holdup assay; set-up: key: below the threshold = too weak to quantify, mostly under pKd 3.1 to 4; details: plain residues with an end cap or a label only (N-terminal biotin on a linker: ado-ado)

pKd	Binder
3.92	YAEKRMLTEV [KCNA6, P17658]
below the threshold	FLVTEFNVML [DFNB31, Q9P202]

biological target: SCRIB_1, Q14160; test: holdup assay; set-up: key: below the threshold = too weak to quantify, mostly under pKd 3.1 to 4; details: plain residues with an end cap or a label only (N-terminal biotin on a linker: ado-ado)
Sequence (Q14160 718-814): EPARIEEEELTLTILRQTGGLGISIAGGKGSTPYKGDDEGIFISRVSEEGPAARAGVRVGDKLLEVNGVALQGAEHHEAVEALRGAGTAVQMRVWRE

pKd	Binder
3.63	YAEKRMLTEV [KCNA6, P17658]
3.86	FLVTEFNVML [DFNB31, Q9P202]

biological target: PDLIM1, O00151; test: holdup assay; set-up: key: below the threshold = too weak to quantify, mostly under pKd 3.1 to 4; details: plain residues with an end cap or a label only (N-terminal biotin on a linker: ado-ado)
Sequence (O00151 1-87): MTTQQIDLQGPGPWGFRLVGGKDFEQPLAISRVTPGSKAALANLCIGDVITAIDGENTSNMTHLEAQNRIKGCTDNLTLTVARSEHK

pKd	Binder
below the threshold	YAEKRMLTEV [KCNA6, P17658]
3.75	FLVTEFNVML [DFNB31, Q9P202]

biological target: T2, MPDZ_10, O75970; test: holdup assay; set-up: key: below the threshold = too weak to quantify, mostly under pKd 3.1 to 4; details: plain residues with an end cap or a label only (N-terminal biotin on a linker: ado-ado)

pKd	Binder
below the threshold	YAEKRMLTEV [KCNA6, P17658]
below the threshold	FLVTEFNVML [DFNB31, Q9P202]

biological target: T3, DLG3_3, Q92796; test: holdup assay; set-up: key: below the threshold = too weak to quantify, mostly under pKd 3.1 to 4; details: plain residues with an end cap or a label only (N-terminal biotin on a linker: ado-ado)

pKd	Binder
below the threshold	YAEKRMLTEV [KCNA6, P17658]
below the threshold	FLVTEFNVML [DFNB31, Q9P202]

biological target: IL16_4, Q14005; test: holdup assay; set-up: key: below the threshold = too weak to quantify, mostly under pKd 3.1 to 4; details: plain residues with an end cap or a label only (N-terminal biotin on a linker: ado-ado)
Sequence (Q14005 1229-1329): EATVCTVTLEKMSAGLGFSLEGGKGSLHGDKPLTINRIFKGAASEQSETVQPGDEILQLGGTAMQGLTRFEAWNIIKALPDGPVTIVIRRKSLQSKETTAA

pKd	Binder
below the threshold	YAEKRMLTEV [KCNA6, P17658]
below the threshold	FLVTEFNVML [DFNB31, Q9P202]

biological target: T4, SNTA1, Q13424; test: holdup assay; set-up: key: below the threshold = too weak to quantify, mostly under pKd 3.1 to 4; details: plain residues with an end cap or a label only (N-terminal biotin on a linker: ado-ado)

pKd	Binder
below the threshold	YAEKRMLTEV [KCNA6, P17658]
3.73	FLVTEFNVML [DFNB31, Q9P202]

biological target: T5, DFNB31_2, Q9P202; test: holdup assay; set-up: key: below the threshold = too weak to quantify, mostly under pKd 3.1 to 4; details: plain residues with an end cap or a label only (N-terminal biotin on a linker: ado-ado)

pKd	Binder
below the threshold	YAEKRMLTEV [KCNA6, P17658]
below the threshold	FLVTEFNVML [DFNB31, Q9P202]

biological target: Inadl_8, Q8NI35; test: holdup assay; set-up: key: below the threshold = too weak to quantify, mostly under pKd 3.1 to 4; details: plain residues with an end cap or a label only (N-terminal biotin on a linker: ado-ado)
Sequence (Q8NI35 1425-1530): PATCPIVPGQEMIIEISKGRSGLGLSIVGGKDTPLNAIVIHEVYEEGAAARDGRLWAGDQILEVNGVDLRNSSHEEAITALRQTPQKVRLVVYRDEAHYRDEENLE

pKd	Binder
below the threshold	YAEKRMLTEV [KCNA6, P17658]
below the threshold	FLVTEFNVML [DFNB31, Q9P202]

biological target: T6, TIAM2, Q8IVF5; test: holdup assay; set-up: key: below the threshold = too weak to quantify, mostly under pKd 3.1 to 4; details: plain residues with an end cap or a label only (N-terminal biotin on a linker: ado-ado)

pKd	Binder
3.99	YAEKRMLTEV [KCNA6, P17658]
3.59	FLVTEFNVML [DFNB31, Q9P202]

biological target: T7, RAPGEF6, Q8TEU7; test: holdup assay; set-up: key: below the threshold = too weak to quantify, mostly under pKd 3.1 to 4; details: plain residues with an end cap or a label only (N-terminal biotin on a linker: ado-ado)

pKd	Binder
3.48	YAEKRMLTEV [KCNA6, P17658]
below the threshold	FLVTEFNVML [DFNB31, Q9P202]

biological target: T8, DFNB31_1, Q9P202; test: holdup assay; set-up: key: below the threshold = too weak to quantify, mostly under pKd 3.1 to 4; details: plain residues with an end cap or a label only (N-terminal biotin on a linker: ado-ado)

pKd	Binder
below the threshold	YAEKRMLTEV [KCNA6, P17658]
below the threshold	FLVTEFNVML [DFNB31, Q9P202]

biological target: T9, NHERF3_1, Q5T2W1; test: holdup assay; set-up: key: below the threshold = too weak to quantify, mostly under pKd 3.1 to 4; details: plain residues with an end cap or a label only (N-terminal biotin on a linker: ado-ado)

pKd	Binder
below the threshold	YAEKRMLTEV [KCNA6, P17658]
4.88	FLVTEFNVML [DFNB31, Q9P202]

biological target: IL16_1, Q14005; test: holdup assay; set-up: key: below the threshold = too weak to quantify, mostly under pKd 3.1 to 4; details: plain residues with an end cap or a label only (N-terminal biotin on a linker: ado-ado)
Sequence (Q14005 210-306): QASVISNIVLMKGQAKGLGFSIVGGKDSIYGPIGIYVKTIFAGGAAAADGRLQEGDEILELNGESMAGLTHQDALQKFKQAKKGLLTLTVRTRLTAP

pKd	Binder
below the threshold	YAEKRMLTEV [KCNA6, P17658]
below the threshold	FLVTEFNVML [DFNB31, Q9P202]

biological target: NOS1, P29475; test: holdup assay; set-up: key: below the threshold = too weak to quantify, mostly under pKd 3.1 to 4; details: plain residues with an end cap or a label only (N-terminal biotin on a linker: ado-ado)
Sequence (P29475 9-101): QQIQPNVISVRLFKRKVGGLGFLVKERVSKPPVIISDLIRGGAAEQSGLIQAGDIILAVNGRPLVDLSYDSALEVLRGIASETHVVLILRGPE

pKd	Binder
below the threshold	YAEKRMLTEV [KCNA6, P17658]
below the threshold	FLVTEFNVML [DFNB31, Q9P202]

biological target: T10, HTRA4, P83105; test: holdup assay; set-up: key: below the threshold = too weak to quantify, mostly under pKd 3.1 to 4; details: plain residues with an end cap or a label only (N-terminal biotin on a linker: ado-ado)

pKd	Binder
4.38	YAEKRMLTEV [KCNA6, P17658]
below the threshold	FLVTEFNVML [DFNB31, Q9P202]

biological target: T11, DVL3, Q92997; test: holdup assay; set-up: key: below the threshold = too weak to quantify, mostly under pKd 3.1 to 4; details: plain residues with an end cap or a label only (N-terminal biotin on a linker: ado-ado)

pKd	Binder
below the threshold	YAEKRMLTEV [KCNA6, P17658]
3.66	FLVTEFNVML [DFNB31, Q9P202]

biological target: FRMPD2_3, Q68DX3; test: holdup assay; set-up: key: below the threshold = too weak to quantify, mostly under pKd 3.1 to 4; details: plain residues with an end cap or a label only (N-terminal biotin on a linker: ado-ado)
Sequence (Q68DX3 1073-1166): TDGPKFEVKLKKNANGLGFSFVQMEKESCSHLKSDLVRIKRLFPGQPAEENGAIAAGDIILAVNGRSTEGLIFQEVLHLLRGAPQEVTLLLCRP

pKd	Binder
below the threshold	YAEKRMLTEV [KCNA6, P17658]
below the threshold	FLVTEFNVML [DFNB31, Q9P202]

biological target: PARD3_3, Q8TEW0; test: holdup assay; set-up: key: below the threshold = too weak to quantify, mostly under pKd 3.1 to 4; details: plain residues with an end cap or a label only (N-terminal biotin on a linker: ado-ado)
Sequence (Q8TEW0 582-685): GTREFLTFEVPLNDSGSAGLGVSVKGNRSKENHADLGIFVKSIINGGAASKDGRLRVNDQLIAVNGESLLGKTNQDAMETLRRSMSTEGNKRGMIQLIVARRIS

pKd	Binder
below the threshold	YAEKRMLTEV [KCNA6, P17658]
4.49	FLVTEFNVML [DFNB31, Q9P202]

biological target: T12, SNTG1, Q9NSN8; test: holdup assay; set-up: key: below the threshold = too weak to quantify, mostly under pKd 3.1 to 4; details: plain residues with an end cap or a label only (N-terminal biotin on a linker: ado-ado)

pKd	Binder
3.57	YAEKRMLTEV [KCNA6, P17658]
below the threshold	FLVTEFNVML [DFNB31, Q9P202]

biological target: DLG5_1, Q8TDM6; test: holdup assay; set-up: key: below the threshold = too weak to quantify, mostly under pKd 3.1 to 4; details: plain residues with an end cap or a label only (N-terminal biotin on a linker: ado-ado)
Sequence (Q8TDM6 617-713): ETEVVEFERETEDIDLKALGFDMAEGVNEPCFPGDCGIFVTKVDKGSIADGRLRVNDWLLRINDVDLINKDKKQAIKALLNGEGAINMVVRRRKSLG

pKd	Binder
below the threshold	YAEKRMLTEV [KCNA6, P17658]
below the threshold	FLVTEFNVML [DFNB31, Q9P202]

biological target: GRIP2_5, Q9C0E4; test: holdup assay; set-up: key: below the threshold = too weak to quantify, mostly under pKd 3.1 to 4; details: plain residues with an end cap or a label only (N-terminal biotin on a linker: ado-ado)
Sequence (Q9C0E4 544-642): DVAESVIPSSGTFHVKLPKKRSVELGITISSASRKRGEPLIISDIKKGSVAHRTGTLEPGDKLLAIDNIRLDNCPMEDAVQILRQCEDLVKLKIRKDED

pKd	Binder
below the threshold	YAEKRMLTEV [KCNA6, P17658]
below the threshold	FLVTEFNVML [DFNB31, Q9P202]

biological target: T13, SNTG2, Q9NY99; test: holdup assay; set-up: key: below the threshold = too weak to quantify, mostly under pKd 3.1 to 4; details: plain residues with an end cap or a label only (N-terminal biotin on a linker: ado-ado)

pKd	Binder
below the threshold	YAEKRMLTEV [KCNA6, P17658]
below the threshold	FLVTEFNVML [DFNB31, Q9P202]
